Experimental data: the supplement of paper PMC7125110
± gives the standard error. For part of these data: Variants at the floor of the assay were thinned out.

B1: glmS ribozyme (parent)
chain: AUAAAAGCGCCAGAACUACAGAAAUGUAGUUGACGAGGAGGAGGUUUAUCGAAUUUUCGGCGGAUGCCUCCAAA

Key:
Conditions in all cases: with glucosamine-6-phosphate
[1] = variants of: B1; test: kcat; higher = faster cleavage; RNA array
Outline: (§1)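 E. coli RNA polymerase transcribed barcoded ribozyme variants in situ on sequenced MiSeq chips, which were tracked via a hybridised Cy3 probe at 37 °C. Tiles were imaged over ~14 h after glucosamine-6-phosphate (40 μM to 10 mM) in HEPES/KCl/Mg(OAc)2 buffer was flowed in. Normalised per-tile medians were fit to one- or two-exponential decays for kobs, and kcat and KM came from weighted Michaelis–Menten fits.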

[2] = variants of: B1; test: self-cleavage kobs at 640 uM GlcN6P; higher = faster cleavage; RNA array
Outline: as §1

[3] = variants of: B1; test: self-cleavage kobs at 2500 uM GlcN6P; higher = faster cleavage; RNA array
Outline: as §1

[4] = variants of: B1; test: self-cleavage kobs at 10000 uM GlcN6P; higher = faster cleavage; RNA array
Outline: as §1

[5] = variants of: B1; test: KM; higher = weaker cofactor use; RNA array
Outline: as §1

[6] = variants of: B1; test: self-cleavage kobs at 160 uM GlcN6P; higher = faster cleavage; RNA array
Outline: as §1

[7] = variants of: B1; test: self-cleavage kobs at 40 uM GlcN6P; higher = faster cleavage; RNA array
Outline: as §1

C11U G66A U69A
kcat [1]: 5.61e-05 ± 6.6e-06 s⁻¹
self-cleavage kobs at 640 uM GlcN6P [2]: 4.24e-05 ± 1.5e-05 s⁻¹
self-cleavage kobs at 2500 uM GlcN6P [3]: 4.46e-05 ± 1.3e-05 s⁻¹
self-cleavage kobs at 10000 uM GlcN6P [4]: 6.32e-05 ± 1.9e-05 s⁻¹

A14G A36G
kcat [1]: 4.89e-05 ± 6.4e-07 s⁻¹
KM [5]: 854 ± 82 µM
self-cleavage kobs at 2500 uM GlcN6P [3]: 3.69e-05 ± 1.2e-05 s⁻¹
self-cleavage kobs at 10000 uM GlcN6P [4]: 4.49e-05 ± 6.3e-06 s⁻¹

G35U C70U
kcat [1]: < 1e-05 s⁻¹
self-cleavage kobs at 160 uM GlcN6P [6]: < 1e-05 s⁻¹
self-cleavage kobs at 640 uM GlcN6P [2]: < 1e-05 s⁻¹
self-cleavage kobs at 10000 uM GlcN6P [4]: < 1e-05 s⁻¹

U31C U57G C67A
kcat [1]: < 1e-05 s⁻¹
self-cleavage kobs at 160 uM GlcN6P [6]: < 1e-05 s⁻¹

A15U C50A
kcat [1]: 1.29e-05 ± 3.8e-06 s⁻¹

C16U C61A
kcat [1]: 1.08e-05 ± 2.3e-06 s⁻¹

G60A C70U
kcat [1]: 3.47e-05 ± 4e-06 s⁻¹
self-cleavage kobs at 40 uM GlcN6P [7]: < 1e-05 s⁻¹
self-cleavage kobs at 2500 uM GlcN6P [3]: 1.93e-05 ± 9.2e-06 s⁻¹
self-cleavage kobs at 10000 uM GlcN6P [4]: 3.02e-05 ± 6.5e-06 s⁻¹

C50G U54A
kcat [1]: 3.07e-05 ± 1e-05 s⁻¹
self-cleavage kobs at 40 uM GlcN6P [7]: 2.88e-05 ± 1.2e-05 s⁻¹
self-cleavage kobs at 160 uM GlcN6P [6]: 5.21e-05 ± 1.6e-05 s⁻¹
self-cleavage kobs at 2500 uM GlcN6P [3]: 5.55e-05 ± 2.3e-05 s⁻¹

U55C G59A
kcat [1]: 0.000118 ± 2.1e-05 s⁻¹
KM [5]: 4900 ± 1900 µM
self-cleavage kobs at 2500 uM GlcN6P [3]: 3.74e-05 ± 1.1e-05 s⁻¹
self-cleavage kobs at 10000 uM GlcN6P [4]: 7.97e-05 ± 1.4e-05 s⁻¹

U49G U56A
kcat [1]: 0.000478 ± 0.00021 s⁻¹
self-cleavage kobs at 640 uM GlcN6P [2]: 0.000105 ± 1.9e-05 s⁻¹
self-cleavage kobs at 2500 uM GlcN6P [3]: 0.000173 ± 4.1e-05 s⁻¹
self-cleavage kobs at 10000 uM GlcN6P [4]: 0.000466 ± 9.5e-05 s⁻¹

U31A A53U
kcat [1]: 0.02 ± 0.007 s⁻¹
KM [5]: 3760 ± 1700 µM
self-cleavage kobs at 40 uM GlcN6P [7]: 0.000232 ± 3.6e-05 s⁻¹
self-cleavage kobs at 160 uM GlcN6P [6]: 0.000911 ± 0.00027 s⁻¹
self-cleavage kobs at 640 uM GlcN6P [2]: 0.00278 ± 0.00064 s⁻¹
self-cleavage kobs at 2500 uM GlcN6P [3]: 0.00529 ± 0.0016 s⁻¹
self-cleavage kobs at 10000 uM GlcN6P [4]: 0.0181 ± 0.0034 s⁻¹

C11A A53U
kcat [1]: 0.000128 ± 2.5e-06 s⁻¹
KM [5]: 2860 ± 180 µM
self-cleavage kobs at 2500 uM GlcN6P [3]: 6.02e-05 ± 1.6e-05 s⁻¹
self-cleavage kobs at 10000 uM GlcN6P [4]: 9.96e-05 ± 1.2e-05 s⁻¹

A42G C50A
kcat [1]: 4.52e-05 ± 2.6e-06 s⁻¹
KM [5]: 7070 ± 920 µM

A42G C50U
kcat [1]: 0.000135 ± 1.2e-05 s⁻¹
KM [5]: 5810 ± 1200 µM
self-cleavage kobs at 2500 uM GlcN6P [3]: 3.96e-05 ± 1.9e-05 s⁻¹
self-cleavage kobs at 10000 uM GlcN6P [4]: 8.57e-05 ± 1.3e-05 s⁻¹

G41U G66U
kcat [1]: 5.98e-05 ± 1.9e-06 s⁻¹
KM [5]: 582 ± 89 µM
self-cleavage kobs at 160 uM GlcN6P [6]: < 1e-05 s⁻¹
self-cleavage kobs at 640 uM GlcN6P [2]: 3.02e-05 ± 1.5e-05 s⁻¹
self-cleavage kobs at 2500 uM GlcN6P [3]: 5.12e-05 ± 1.5e-05 s⁻¹
self-cleavage kobs at 10000 uM GlcN6P [4]: 5.53e-05 ± 1.3e-05 s⁻¹

U49G U69A
kcat [1]: 4.14e-05 ± 1.7e-05 s⁻¹
self-cleavage kobs at 2500 uM GlcN6P [3]: 8.22e-05 ± 2.2e-05 s⁻¹

A52U C71U
kcat [1]: 0.000457 ± 4e-05 s⁻¹
KM [5]: 2130 ± 390 µM
self-cleavage kobs at 640 uM GlcN6P [2]: 0.0001 ± 1.4e-05 s⁻¹
self-cleavage kobs at 2500 uM GlcN6P [3]: 0.000275 ± 2.9e-05 s⁻¹
self-cleavage kobs at 10000 uM GlcN6P [4]: 0.000362 ± 3.4e-05 s⁻¹

A33U C50U C68U
kcat [1]: 2.95e-05 ± 1.3e-05 s⁻¹
self-cleavage kobs at 640 uM GlcN6P [2]: < 1e-05 s⁻¹

U57G C58G C68U
kcat [1]: 4.52e-05 ± 1.6e-05 s⁻¹
self-cleavage kobs at 640 uM GlcN6P [2]: 7.15e-05 ± 2.1e-05 s⁻¹

A12G G40A
kcat [1]: 0.000633 ± 0.00014 s⁻¹
KM [5]: 4040 ± 1300 µM
self-cleavage kobs at 160 uM GlcN6P [6]: 1.6e-05 ± 7.3e-06 s⁻¹
self-cleavage kobs at 640 uM GlcN6P [2]: 9.61e-05 ± 8.9e-06 s⁻¹
self-cleavage kobs at 2500 uM GlcN6P [3]: 0.000218 ± 2.3e-05 s⁻¹
self-cleavage kobs at 10000 uM GlcN6P [4]: 0.000486 ± 6.3e-05 s⁻¹

A6C U69C
kcat [1]: 3.1e-05 ± 9.9e-06 s⁻¹
self-cleavage kobs at 40 uM GlcN6P [7]: < 1e-05 s⁻¹
self-cleavage kobs at 2500 uM GlcN6P [3]: 4.93e-05 ± 2e-05 s⁻¹

U30G A64G
kcat [1]: 0.00607 ± 0.0017 s⁻¹
KM [5]: 1440 ± 540 µM
self-cleavage kobs at 40 uM GlcN6P [7]: 0.000178 ± 3.9e-05 s⁻¹
self-cleavage kobs at 10000 uM GlcN6P [4]: 0.0064 ± 0.0018 s⁻¹

A15G G32C
kcat [1]: 0.000278 ± 6.2e-05 s⁻¹
KM [5]: 8170 ± 3300 µM
self-cleavage kobs at 2500 uM GlcN6P [3]: 6.16e-05 ± 1.6e-05 s⁻¹
self-cleavage kobs at 10000 uM GlcN6P [4]: 0.000154 ± 2e-05 s⁻¹

A53U G66A
kcat [1]: 0.0162 ± 0.0055 s⁻¹
KM [5]: 2370 ± 1000 µM
self-cleavage kobs at 40 uM GlcN6P [7]: 0.000372 ± 5.2e-05 s⁻¹
self-cleavage kobs at 160 uM GlcN6P [6]: 0.000827 ± 0.00015 s⁻¹
self-cleavage kobs at 640 uM GlcN6P [2]: 0.00327 ± 0.00068 s⁻¹
self-cleavage kobs at 2500 uM GlcN6P [3]: 0.00666 ± 0.0024 s⁻¹
self-cleavage kobs at 10000 uM GlcN6P [4]: 0.0144 ± 0.0026 s⁻¹

A39U A64C
kcat [1]: 0.000269 ± 4.6e-05 s⁻¹
KM [5]: 3410 ± 1100 µM
self-cleavage kobs at 640 uM GlcN6P [2]: 5.07e-05 ± 7e-06 s⁻¹
self-cleavage kobs at 2500 uM GlcN6P [3]: 9.58e-05 ± 1.3e-05 s⁻¹
self-cleavage kobs at 10000 uM GlcN6P [4]: 0.00021 ± 1.9e-05 s⁻¹

G29A G32C
kcat [1]: 0.000144 ± 1.8e-05 s⁻¹
KM [5]: 5140 ± 1500 µM
self-cleavage kobs at 2500 uM GlcN6P [3]: 5.01e-05 ± 9.3e-06 s⁻¹
self-cleavage kobs at 10000 uM GlcN6P [4]: 9.45e-05 ± 9.1e-06 s⁻¹

U57A C70G
kcat [1]: 3.91e-05 ± 1.5e-05 s⁻¹
self-cleavage kobs at 640 uM GlcN6P [2]: 4.96e-05 ± 1.4e-05 s⁻¹
self-cleavage kobs at 2500 uM GlcN6P [3]: 6.55e-05 ± 1.6e-05 s⁻¹

A42C C67A
kcat [1]: 0.000122 ± 1.6e-05 s⁻¹
KM [5]: 1160 ± 560 µM
self-cleavage kobs at 640 uM GlcN6P [2]: 5.06e-05 ± 1.6e-05 s⁻¹
self-cleavage kobs at 2500 uM GlcN6P [3]: 5.66e-05 ± 2.8e-05 s⁻¹
self-cleavage kobs at 10000 uM GlcN6P [4]: 0.000114 ± 1.7e-05 s⁻¹

U47G A64U
kcat [1]: 2.76e-05 ± 3.5e-06 s⁻¹

U54A U55A
kcat [1]: 0.044 ± 0.016 s⁻¹
KM [5]: 1290 ± 540 µM
self-cleavage kobs at 40 uM GlcN6P [7]: 0.00147 ± 0.00017 s⁻¹
self-cleavage kobs at 160 uM GlcN6P [6]: 0.00297 ± 0.001 s⁻¹
self-cleavage kobs at 10000 uM GlcN6P [4]: 0.0388 ± 0.0094 s⁻¹

A33C
kcat [1]: 0.000505 ± 2.5e-05 s⁻¹
KM [5]: 2800 ± 240 µM
self-cleavage kobs at 40 uM GlcN6P [7]: 1.4e-05 ± 2.6e-06 s⁻¹
self-cleavage kobs at 160 uM GlcN6P [6]: 2.95e-05 ± 1.7e-06 s⁻¹
self-cleavage kobs at 640 uM GlcN6P [2]: 9.27e-05 ± 1.9e-06 s⁻¹
self-cleavage kobs at 2500 uM GlcN6P [3]: 0.000541 ± 0.00018 s⁻¹
self-cleavage kobs at 10000 uM GlcN6P [4]: 0.000395 ± 6.8e-06 s⁻¹

C16A G63C
kcat [1]: < 1e-05 s⁻¹
self-cleavage kobs at 160 uM GlcN6P [6]: < 1e-05 s⁻¹

U31C A39C
kcat [1]: 0.00127 ± 0.00014 s⁻¹
KM [5]: 2620 ± 500 µM
self-cleavage kobs at 40 uM GlcN6P [7]: 3.17e-05 ± 7.1e-06 s⁻¹
self-cleavage kobs at 160 uM GlcN6P [6]: 6.64e-05 ± 9.6e-06 s⁻¹
self-cleavage kobs at 640 uM GlcN6P [2]: 0.000259 ± 2.4e-05 s⁻¹
self-cleavage kobs at 2500 uM GlcN6P [3]: 0.00058 ± 5.1e-05 s⁻¹
self-cleavage kobs at 10000 uM GlcN6P [4]: 0.00102 ± 6.7e-05 s⁻¹

A39G A48C
kcat [1]: 0.000798 ± 0.00012 s⁻¹
KM [5]: 2140 ± 600 µM
self-cleavage kobs at 640 uM GlcN6P [2]: 0.000196 ± 3.4e-05 s⁻¹
self-cleavage kobs at 2500 uM GlcN6P [3]: 0.000468 ± 9e-05 s⁻¹
self-cleavage kobs at 10000 uM GlcN6P [4]: 0.00063 ± 0.0001 s⁻¹

C50G C71U
kcat [1]: 0.000123 ± 2.1e-05 s⁻¹
self-cleavage kobs at 40 uM GlcN6P [7]: 6.9e-05 ± 9.9e-06 s⁻¹
self-cleavage kobs at 160 uM GlcN6P [6]: 0.000107 ± 1e-05 s⁻¹
self-cleavage kobs at 640 uM GlcN6P [2]: 0.000194 ± 2.7e-05 s⁻¹
self-cleavage kobs at 2500 uM GlcN6P [3]: 0.000103 ± 1.3e-05 s⁻¹

A15C A48U
kcat [1]: 5.55e-05 ± 7.9e-06 s⁻¹
KM [5]: 2840 ± 1100 µM
self-cleavage kobs at 40 uM GlcN6P [7]: < 1e-05 s⁻¹
self-cleavage kobs at 2500 uM GlcN6P [3]: 2.83e-05 ± 1.2e-05 s⁻¹
self-cleavage kobs at 10000 uM GlcN6P [4]: 4.26e-05 ± 1.2e-05 s⁻¹

G32C A39U
kcat [1]: 6.89e-05 ± 3.3e-06 s⁻¹
KM [5]: 9270 ± 880 µM
self-cleavage kobs at 10000 uM GlcN6P [4]: 3.58e-05 ± 6.1e-06 s⁻¹
